The values that follow come from the RNAGym collection of RNA variant scans (doi:10.7554/elife.90254).

The labels stand for the following.
B1: LINE1-full (parent)
chain: UACGUAGGUGGUUUUCCCCUGAUAGUGCUAAGGGGGCCUGGAAGUUUGGACUGGGCAGAGCUCAACACAGCGUGGCAAAGUGGCUGUGGCUAGACUGCCUCUCUGGAUUCCUCGUCACUCAGCAGGGCAUCUCUGAGAGAAAUGCC

The data set covers variants of B1. As to the kind of experiment: self-cleavage, relative activity (ratio to wild type); higher = more cleavage; in vitro, sequencing; the parent is a self-cleaving ribozyme.
In the case of U23A U52A, the self-cleavage was determined as 1.37.

For U20G A77G, the self-cleavage turned out to be 1.36.

Take A22G U134A: the self-cleavage was found to be 1.03.

As to A22G U134C, the self-cleavage is 0.96.

Turning to U23A A117G, the self-cleavage came out at 2.16.

For the variant U20G C95U, the self-cleavage was determined as 0.29.

Consider A22U A67G, for which the self-cleavage was 0.41.

For A22U G25A, the self-cleavage is 0.7.

As to A22U C123A, the self-cleavage was determined as 1.17.

In the case of G21U U119C, the self-cleavage stood at 1.84.

For U20C U143A, the self-cleavage turned out to be 1.5.

Consider U23C A64G, for which the self-cleavage came to 0.35.

For A22G G35U, the self-cleavage was 0.6.

Regarding A22G A121G, the self-cleavage stood at 0.95.

With A22G A121U, the self-cleavage turned out to be 1.

As to G21U U85G, the self-cleavage is 0.08.

As for U23A U29C, the self-cleavage was 1.02.

As for U23A U29A, the self-cleavage stood at 1.24.

With A22C A142G, the self-cleavage is 1.27.

Regarding A22U U130A, the self-cleavage stood at 1.38.

Consider U20G A22G, for which the self-cleavage was found to be 0.41.

For the variant A22U A107U, the self-cleavage was found to be 1.96.

For the variant U23C U108A, the self-cleavage was found to be 1.33.

For the variant U23C U108C, the self-cleavage stood at 1.38.

Regarding U20G A142G, the self-cleavage came to 1.09.

Regarding G21A U115A, the self-cleavage came out at 1.46.

Take G21U G72A: the self-cleavage stood at 1.62.

Consider U23A A31C, for which the self-cleavage was 1.31.

A22C U119A: the self-cleavage worked out at 2.09.

As to A22G C133U, the self-cleavage came out at 0.58.

As for A22G U23C, the self-cleavage came to 0.63.

With A22C A92U, the self-cleavage turned out to be 1.7.

Regarding U23C A121U, the self-cleavage amounted to 0.66.

As to U23C A121G, the self-cleavage turned out to be 2.

With U23C A136G, the self-cleavage was 1.27.

As to A22G U29C, the self-cleavage is 1.42.

On to G21A U46C, for which the self-cleavage came to 1.31.

As for A22G U104A, the self-cleavage turned out to be 1.38.

For the variant A22G U104C, the self-cleavage is 1.26.

Regarding U23C C63U, the self-cleavage came out at 0.35.

As to U20C U108C, the self-cleavage was determined as 1.62.

For A22U A129G, the self-cleavage is 2.09.

In the case of A22G C71U, the self-cleavage was 0.55.

As to U23A A142G, the self-cleavage was found to be 1.12.

Take A22U U143G: the self-cleavage turned out to be 1.27.

For U23C A79U, the self-cleavage is 2.06.

As for U23C A79G, the self-cleavage was found to be 1.4.

For the variant A22U A65G, the self-cleavage amounted to 0.14.

In the case of A22U A77G, the self-cleavage came to 2.23.

Consider A22U A77U, for which the self-cleavage came to 0.62.

Take A22G G72A: the self-cleavage came to 1.94.

Consider A22U A42G, for which the self-cleavage came out at 1.54.

For the variant U23A U81A, the self-cleavage came to 1.7.

As for A22G G82A, the self-cleavage worked out at 1.94.

On to G21A U102A, for which the self-cleavage worked out at 1.14.

Regarding A22G U132G, the self-cleavage was 1.67.

A22U A30G: the self-cleavage worked out at 1.98.

With A22G G36A, the self-cleavage was found to be 1.36.

Consider A22G U119G, for which the self-cleavage is 1.51.

On to A22U A138C, for which the self-cleavage was 0.92.

For the variant A22U A138G, the self-cleavage amounted to 1.09.

As to G21C U143C, the self-cleavage was 1.97.

A22U G55A: the self-cleavage came out at 0.37.

Consider U23C U112A, for which the self-cleavage came to 1.37.

With A22G G122C, the self-cleavage amounted to 1.31.

Consider A22G G122A, for which the self-cleavage is 0.

For G21A U45A, the self-cleavage amounted to 1.58.

Take G21A U45C: the self-cleavage stood at 0.84.

Take G21A A59G: the self-cleavage was found to be 0.04.

Regarding U23A U104C, the self-cleavage was 0.84.

A22G U62C: the self-cleavage was 0.09.

On to A22U C38U, for which the self-cleavage amounted to 1.18.

As for A22U A69U, the self-cleavage was determined as 0.12.

Regarding A22G G49A, the self-cleavage was 0.84.

A22C A50G: the self-cleavage stood at 1.86.

Take G21A G82A: the self-cleavage was determined as 2.

Turning to U23C A31U, the self-cleavage was found to be 0.77.

Consider U20C U134A, for which the self-cleavage was found to be 0.96.

U20C U134C: the self-cleavage is 1.57.

Take U20C U134G: the self-cleavage amounted to 0.77.

On to U23A U39A, for which the self-cleavage is 1.42.

For U23C A24C, the self-cleavage was 1.09.

In the case of A22U U91C, the self-cleavage is 0.2.

As to A22U U91A, the self-cleavage was 0.3.

Turning to U23A A124G, the self-cleavage stood at 0.94.

Take U23C C118U: the self-cleavage was found to be 1.81.

For the variant U23A U26C, the self-cleavage worked out at 0.99.

G21U A77G: the self-cleavage was 1.7.

Consider A22G U96A, for which the self-cleavage was 0.13.

For U23C G27A, the self-cleavage is 1.8.

With G21U U96C, the self-cleavage came out at 0.06.

Turning to A22G G33U, the self-cleavage was found to be 1.25.

Regarding A22G A141G, the self-cleavage is 1.27.

As to A22G G44A, the self-cleavage was 1.25.

Take A22C U73C: the self-cleavage stood at 1.88.

Consider A22U U47A, for which the self-cleavage was found to be 1.44.

Consider A22U U47C, for which the self-cleavage turned out to be 1.04.

With U23C A65C, the self-cleavage came to 0.

With U23A U85C, the self-cleavage was 0.28.

As for U23A A67U, the self-cleavage turned out to be 0.19.

On to A22G A59U, for which the self-cleavage amounted to 0.33.

In the case of A22G A59C, the self-cleavage turned out to be 1.31.

U23A U47C: the self-cleavage was 1.88.

On to U23A U46A, for which the self-cleavage was 0.6.

Turning to A22C A140G, the self-cleavage came to 1.65.

For the variant A22G G54A, the self-cleavage came to 0.75.

For A22G G54U, the self-cleavage was determined as 0.23.

For the variant U23C G72U, the self-cleavage was 0.

As to G21U A94G, the self-cleavage was 0.18.

As for A22C U85C, the self-cleavage was determined as 0.35.

Regarding U20C U112G, the self-cleavage was 0.54.

In the case of U20C U104C, the self-cleavage turned out to be 1.51.

In the case of U23A A57G, the self-cleavage was 0.94.

As to A22G U73A, the self-cleavage stood at 1.29.

With G21A A117U, the self-cleavage came out at 1.55.

For U23C A142U, the self-cleavage turned out to be 2.35.

In the case of A22G U100C, the self-cleavage was found to be 1.75.

Consider A22G U100A, for which the self-cleavage was 0.98.

For A22U G122A, the self-cleavage is 1.19.

Consider U23C A57G, for which the self-cleavage was 1.2.

Turning to U23C A57U, the self-cleavage stood at 0.18.

In the case of A22G C61U, the self-cleavage stood at 0.07.

Take A22U U85A: the self-cleavage was found to be 0.08.

Consider G21A C28U, for which the self-cleavage came to 1.22.

Turning to A22C A129U, the self-cleavage turned out to be 1.96.

On to A22U U96G, for which the self-cleavage is 0.53.

Turning to A22U U96A, the self-cleavage is 0.09.

For the variant A22U U108C, the self-cleavage was 1.19.

A22U U104A: the self-cleavage came to 1.01.

A22U U104C: the self-cleavage stood at 1.31.

G21A U112C: the self-cleavage is 1.02.

In the case of U23C G48A, the self-cleavage was determined as 1.44.

With A22G A43G, the self-cleavage amounted to 1.02.

In the case of A22G C99U, the self-cleavage came to 0.23.

In the case of U23A A92G, the self-cleavage came to 0.12.

Consider G21U U62A, for which the self-cleavage was 0.02.

With U20G G34A, the self-cleavage came to 0.69.

Take A22C U143A: the self-cleavage was 1.53.

With A22U U100C, the self-cleavage was 1.54.

As to A22C A141G, the self-cleavage was 1.34.

Regarding A22G U109C, the self-cleavage is 1.36.

Regarding U23C A124G, the self-cleavage came out at 1.52.

Consider G21A A142G, for which the self-cleavage is 1.66.

In the case of G21A A50C, the self-cleavage was 0.9.

G21A A50G: the self-cleavage came out at 0.71.

As to G21A C146U, the self-cleavage worked out at 1.56.

Consider U23C G35A, for which the self-cleavage was 1.4.

For U23C U62C, the self-cleavage is 0.04.

On to U20G U81A, for which the self-cleavage was determined as 2.03.

On to U20G U81C, for which the self-cleavage came to 1.08.

For the variant A22G U47C, the self-cleavage stood at 1.18.

Take U23C U100C: the self-cleavage was 1.79.

For U23C U100A, the self-cleavage is 1.3.

Consider A22U U62A, for which the self-cleavage worked out at 0.

For the variant U23C G144A, the self-cleavage was 1.28.

Regarding U23C G93U, the self-cleavage came out at 0.04.

Regarding A22G G86A, the self-cleavage was 0.07.

With A22U A24G, the self-cleavage was determined as 1.95.

In the case of A22U A79G, the self-cleavage stood at 0.96.

With U23C U104C, the self-cleavage amounted to 1.78.

In the case of U23C U104A, the self-cleavage came to 1.14.

Consider U23C U26C, for which the self-cleavage amounted to 1.29.

Take G21A A129U: the self-cleavage came out at 1.17.

As to A22G A78C, the self-cleavage is 1.45.

On to G21A U91C, for which the self-cleavage stood at 0.35.

For the variant U23A G144A, the self-cleavage was determined as 1.85.

With A22U C103U, the self-cleavage is 1.42.
